Data set [1] is described as follows: RP-HPLC temperature profiling: hydrophobicity and self-association. Type of data set: physicochemical. The protocol: Peptides are analyzed on an Agilent 1200 series liquid chromatograph (Little Falls, Del.). Runs are performed on a Zorbax 300 SB-C8 column (150×4.6 mm I.D.; 5 μm particle size, 300 Å pore size) from Agilent Technologies using linear AB gradient (1% acetonitrile/min) and a flow rate of 1 ml/min, where solvent A is 0.05% aqueous TFA, pH 2 and solvent B is 0.05% TFA in acetonitrile.
We further use temperature profiling during RP-HPLC to determine the self-association ability of various analogs of PL-13 (SEQ ID NO: 1) which would occur through interaction of the non-polar faces of these amphipathic peptides α-helices. We use 50% TFE aqueous acetonitrile and hydrophobic conditions in the reversed-phase column (hydrophobic stationary phase and the hydrophobic organic solvent in the mobile phase) since the hydrophobic environment of a reversed-phase column also could induce α-helical structure. Since its introduction, the technique of RP-HPLC temperature profiling has been applied on several types of molecules, including cyclic β-sheet peptides, monomeric α-helices and α-helices that dimerize, as well as α-helices that dimerize to form coiled-coils. Although peptides are eluted from a reversed-phase column mainly by an adsorption/desorption mechanism, even a peptide strongly bound to a hydrophobic stationary phase will partition between the matrix and the mobile phase when the acetonitrile content becomes high enough during gradient elution. In summary, the mechanism is based on four assumptions: (i) at low temperature, just as an amphipathic α-helical peptide is able to dimerize in aqueous solution (through its hydrophobic, non-polar face), it will dimerize in solution during partitioning in reversed-phase chromatography; (ii) at higher temperatures, the monomer-dimer equilibrium favors the monomer as the dimer is disrupted; (iii) at sufficiently high temperatures, only monomer is present in solution; and (iv) peptide is always bound in its monomeric helical form to the hydrophobic stationary phase, i.e., the dimer can only be present in solution and disruption of the dimer is required for rebinding to the RP-HPLC matrix.
([θ]222=−3,950). Since peptide C is a monomeric random coil peptide in both aqueous and hydrophobic media, its retention behavior over the temperature range 5-80° C. represents only general temperature effects on peptide retention behavior, i.e., a linear decrease in peptide retention time with increasing temperature due to greater solute diffusivity and enhanced mass transfer between the stationary and mobile phases at higher temperatures. Thus, after normalization to the retention times of peptide C, the retention behavior of the peptides only represents peptide self-association ability. Note that the higher the PA value, the greater the self-association ability. The order of peptide self-association ability of the three pairs of peptide enantiomers is identical to the order of peptide hydrophobicity. Apart from the decrease in retention time due to the general temperature effects noted above, destruction of the α-helix will also occur with increasing temperature, resulting in reduced retention times as the peptides become increasingly random coils.
The retention time data for the peptides is shown in Table 6 which records retention times at 5° C., the maximal retention times and retention times at 80° C. during the temperature profiling. Temperatures of 5-80° C. are the lower and upper temperature limits of temperature profiling in RP-HPLC, representing polymerization of the peptides at 5° C. and the monomerization of peptides at 80° C. due to denaturation of peptides by high temperature and dissociation of the polymers. The maximal retention times represent the threshold points at which peptides totally transform from polymeric to monomeric form. […]

A short description of data set [2]: Circular dichroism (CD) spectroscopy, helical structure. The format is physicochemical. The following applies: 50% trifluoroethanol (TFE), 5° C. A general note: Circular dichroism is widely used to follow secondary structure.

As to “Ac-ELEKGGLEGEKGGKELEK-amide (Ac-ELEKGGLEGEKGGKELEK-NH2) [reference compound]”, in data set [1] (RP-HPLC temperature profiling, 5° C.), the “tR(min) 5° C.” value is recorded as 22.56 min. Also, in data set [1] (RP-HPLC temperature profiling, 80° C.), the “tR(min) 80° C.” value was determined as 19.91 min. In data set [1] (maximal retention time during temperature profiling 5-80° C.), the “tR(min) Max” value was 22.56 min. Besides, in data set [2], the “[θ]222” value is given as −3,950.
